Columns and labels:
[1] = test system: milk PMNs; experiment: Phagocytosis of fluorescent beads by milk PMNs (flow cytometry) after intramammary infusion; assay type: in vivo, bovine (Holstein dairy cattle)
Experimental: (§1) FIGS. 2(A-I): Quantity and Quality of Milk PMNs from Mammary Glands Infused with r-BolL-1 or r-BoIL-2
(§2) A total of 12 mammary glands from normal lactating Holstein dairy cattle are infused through the teat canal with either 200 μg of r-BoIL-1; 2 mg of r-BoIL-2; or 1 mg of r-BoGM-CSF. Milk samples are collected and the number of viable somatic cells counted on a Coulter® ZM with a C256 Channelyzer. The data is expressed as the somatic cell count per ml of milk sampled at 16, 40, 64 and 88 hours after infusion for r-BoIL-1 (A); r-BoIL-2 (D); or r-BoGM-CSF(G). The total percentage of phagocytosis by milk PMNs (polymorphonuclear cells) is quantitatively measured by flow cytometry by measuring the percentage of cells ingesting 2μ fluorescent beads for r-BoIL-1 (B); r-BoIL-2(E); or r-BoGM-CSF(H). The total population is first gated by forward angle light scatter, FALS and 90° light scatter to only consider viable polymorphonuclear cells. The induction of superoxide after PMA (520.eta.g)stimulation is also monitored using a whole cell cytochrome-c reduction assay, for r-BoIL-1 (C); r-BoIL-2(F); or r-BoGM-CSF(I). PMNs from untreated milk could not be induced to produce superoxide, while peripheral blood PMNs are inducible in a range of 5-15 .eta.M O2 /Minute/10^7 PMNs.

[2] = test system: milk PMNs; experiment: Quantity of milk PMNs after intramammary infusion; assay type: in vivo, bovine (Holstein dairy cattle)
Experimental: as §1, §2

[3] = test system: Bovine Mammary Gland; experiment: Dose response of bovine mammary gland to intramammary infusion: somatic cell influx into milk; assay type: in vivo, bovine (Holstein dairy cattle); details: for infiltration of somatic cells into the milk: lactating cattle, FIG. 1; for minimal effective dose: somatic cell influx
Experimental: FIG. 1: Dose Response of Bovine Mammary Gland to Intramammary Infusion of Recombinant Cytokines
Five fold serial dilutions of r-BolL-1 (recombinant bovine interleukin-1) from 312.5 μg to […]: r-BoIL-2 (recombinant bovine interleukin-2) from 40 mg to 0.1 mg: and r-BoGM-CSF (recombinant bovine granulocyte macrophage colony stimulating factor) from 0.2 mg to […] are administered at time 0 into 3-4 mammary glands from normal lactating Holstein dairy cattle. A total of 54 mammary gland quarters, 3-4 per group, are infused through the teat canal with various concentrations of recombinant bovine cytokines after the morning milking. Milk samples are collected and the number of viable somatic cells counted on a Coulter® ZM with a C256 Channelyzer. The data is expressed as the somatic cell count per ml of milk
These doses are guidelines for quantitative induction of somatic cells, but significant beneficial qualitative changes can be induced with lower doses. The specific biological activity for r-BoIL-1 as a chemoattractant is approximately 10,000 fold greater than r-BoIL-2, although the in vitro specific bioactivities are equivalent. Active IL-2 inhibition or decreased biostability in milk might explain this discrepancy. The peak number of cells after r-BoIL-1 infusion with a maximal tolerable dose is 4-5 fold greater than r-BoIL-2. The kinetics of PMN migration into the mammary gland is such that migration occurs 8- 24 hours sooner for r-BoIL-1 infusions […] the BolL-2 infusion depending upon the dose. The dominant cell type after r-BoIL-1 or r-BoIL-2 infusion is PMNs.

[4] = test system: milk PMNs; experiment: Inducible superoxide of milk PMNs after PMA stimulation (cytochrome-c reduction); assay type: in vivo, bovine (Holstein dairy cattle)
Experimental: as §1, §2

[5] = test system: S. aureus; experiment: Therapy of established S. aureus mastitis infections; assay type: in vivo, S. aureus (in lactating Holstein dairy cattle); details: for most efficacious dosing: compared with a single bolus; for dose response of therapeutic efficacy / therapeutic efficacy in infected mammary glands: intramammary infusion
Experimental: The percentage of quarters clearing the infection for greater than 1 milking (RESPONDING), as compared to the percentage of quarters which actually cure their infections (CURE) is a measure of the failure of the host cells to kill the bacteria. The relapse rate is the greatest for r-BoIL-2 (combined relapse rate of 40% for the 10 mg dose X's 3). […] Furthermore, if activation of the host cells is effective, as indicated by the r-BoIL-2 and r-BoGM-CSF, then a combination therapy with r-BoIL-1 or antibiotics is useful.
^1 S. aureus infections are established 2-3 weeks prior to treatment.
Treatments are administered after the AM or PM milking by 1-3 successive
intramammary infusions. A total of 120 mammary glands from 28 different
lactating Holstein dairy cattle are used. Recombinant bovine
interleukin1(IL-1) and interleukin2(IL-2) are obtained from IMMUNEX Corp.
Seattle, WA. Na cephapirin is prepared is PBS; and CefaLak ®
(BristolMeyers) is used according to package# insert instructions.
^2 Cytokines are infused intramammary through the teat canal after th
PM milking at the indicated intervals. The total dose is delivered in a
total volume of 10 ml of sterile PBS. The biological activity of rBoIL-1
and rBoIL-2 is 32,000 Units/μg and 22,000 Units/μg, respectively. A
total dose per infusion 200 mg of Na cephapirin and CefaLak ® is
administered after consecutive PM and AM milkings, according to described
^3 The % RESPONDING = quarters which transiently (> 1 milking) are
free of S. aureus divided by the total number of quarters treated.
^4 The % CURED QUARTERS = # of quarters which clear their infection
and remain free of S. aureus divided by the total number of quarters
treated. Infections are considered to have relapsed if there are > 1 CFUs
from three consecutive AM milkings, or > 20 CFUs for two consecutive afte
therapy at anytime during the 14 day monitoring period.
^5 The % RELAPSE = [1 - {[…]}] ×

[6] = IL-1 multiple, 10 μg, interval 24 hrs
[7] = IL-1 multiple, 10 μg, interval 48 hrs
[8] = IL-1 multiple, 200 μg, interval 24 hrs
[9] = IL-1 multiple, 200 μg, interval 48 hrs
[10] = IL-2 multiple, 2 mg, interval 24 hrs
[11] = IL-2 multiple, 10 mg, interval 24 hrs

B1: recombinant bovine interleukin-1 (protein, UniProt P09428 114-266, looked up)
Interleukin-1 beta: APVQSIKCKLQDREQKSLVLASPCVLKALHLLSQEMNREVVFCMSFVQGEERDNKIPVALGIKDKNLYLSCVKKGDTPTLQLEEVDPKVYPKRNMEKRFVFYKTEIKNTVEFESVLYPNWYISTSQIEERPVFLGHFRGGQDITDFRMETLSP
notes: recombinant bovine interleukin-1, obtained from IMMUNEX Corp. Seattle, WA
phagocytosis ([1]; 200 μg r-BoIL-1, FIG. 2B): unaffected | increase over the pre-treatment number of PMNs ([2]; 16 hours, 200 μg, FIG. 2A): 150 × | increase over the pre-treatment number of PMNs ([2]; 40 hours, 200 μg, FIG. 2A): 20 × | number of PMNs ([2]; by 112 hours, 200 μg, FIG. 2A): back to normal levels by 112 hours | PMN migration into the mammary gland occurs sooner than with BoIL-2 infusion ([3]; depending upon the dose): 8 to 24 h | dominant cell type after infusion ([3]; intramammary infusion): PMNs | maximal tolerable dose ([3]; intramammary infusion): 1000 mg | infiltration of somatic cells into the milk ([3]; intramammary infusion): induce an infiltration of somatic cells into the milk in a dose related manner | specific biological activity as a chemoattractant, greater than r-BoIL-2 ([3]; intramammary infusion, relative to r-BoIL-2): approximately 10,000 fold | minimal effective dose ([3]; intramammary infusion): 0.5 mg | peak number of cells after infusion, greater than r-BoIL-2 ([3]; maximal tolerable dose, relative to r-BoIL-2): 4-5 fold | inducible superoxide upon phorbol ester stimulation ([4]; 200 μg r-BoIL-1, vs resident PMNs, FIG. 2C): significantly increased over the resident PMNs | % CURES [5, 6]: 8% | % RELAPSE [5, 6]: 90% | % RESPONSE [5, 6]: 77% | % CURES [5, 7]: 0% | % RELAPSE [5, 7]: 100% | % RESPONSE [5, 7]: 39% | % CURES [5, 8]: 7% | % RELAPSE [5, 8]: 91% | % RESPONSE [5, 8]: 79% | % CURES [5, 9]: 29% | % RELAPSE [5, 9]: 54% | % RESPONSE [5, 9]: 64% | % CURES ([5]; IL-1 single, 10 μg): 11% | % RELAPSE ([5]; IL-1 single, 10 μg): 0% | % RESPONSE ([5]; IL-1 single, 10 μg): 11% | % CURES ([5]; IL-1 single, 200 μg): 0% | % RELAPSE ([5]; IL-1 single, 200 μg): 100% | % RESPONSE ([5]; IL-1 single, 200 μg): 20% | % CURES ([5]; IL-1 single, 600 μg): 0% | % RELAPSE ([5]; IL-1 single, 600 μg): 100% | % RESPONSE ([5]; IL-1 single, 600 μg): 10% | relapse rate ([5]; as quoted in text of Example 5): 54% | most efficacious dosing [5]: most efficacious if doses are administered over 3 consecutive milkings | dose response of therapeutic efficacy [5]: dose response therapeutic efficacy | therapeutic efficacy in infected mammary glands [5]: effectively treated

B2: recombinant bovine interleukin-2 (protein, UniProt P05016 21-155, looked up)
Interleukin-2: APTSSSTGNTMKEVKSLLLDLQLLLEKVKNPENLKLSRMHTFDFYVPKVNATELKHLKCLLEELKLLEEVLNLAPSKNLNPREIKDSMDNIKRIVLELQGSETRFTCEYDDATVNAVEFLNKWITFCQSIYSTMT
notes: recombinant bovine interleukin-2, obtained from IMMUNEX Corp. Seattle, WA
percent phagocytosis ([1]; by 112 hrs, 2 mg r-BoIL-2, FIG. 2E): still above the pre-treatment level | average number of ingested beads per phagocytic cell ([1]; r-BoIL-2, upon activation): increased upon activation | phagocytosis increase over resident PMNs ([1]; within 40-64 hours, 2 mg r-BoIL-2, FIG. 2E): 2-3 fold | milk PMNs (quantity) ([2]; 2 mg, FIG. 2D): quantitative increase in milk PMNs | milk PMNs (quantity), decline ([2]; after 72 hours, 2 mg, FIG. 2D): diminishes after 72 hours, to control levels | dominant cell type after infusion ([3]; intramammary infusion): PMNs | maximal tolerable dose ([3]; intramammary infusion): 30 mg | infiltration of somatic cells into the milk ([3]; intramammary infusion): induce an infiltration of somatic cells into the milk in a dose related manner | minimal effective dose ([3]; intramammary infusion): 0.5 mg | inducible superoxide, duration ([4]; 2 mg r-BoIL-2, FIG. 2F): remains throughout the 96 hours of sampling | inducible superoxide ([4]; 2 mg r-BoIL-2, vs resident PMNs, FIG. 2F): significantly increased over the resident PMNs | combined relapse rate ([5]; 10 mg dose X's 3): 40% | % CURES [5, 10]: 9% | % RELAPSE [5, 10]: 84% | % RESPONSE [5, 10]: 55% | % CURES [5, 11]: 25% | % RELAPSE [5, 11]: 57% | % RESPONSE [5, 11]: 58% | % RESPONSE ([5]; IL-2 multiple, 10 mg, interval 48 hrs): 33% | % CURES ([5]; IL-2 single, 2 μg): 0% | % RESPONSE ([5]; IL-2 single, 2 μg): 0% | % CURES ([5]; IL-2 single, 10 μg): 0% | % RELAPSE ([5]; IL-2 single, 10 μg): 100% | % RESPONSE ([5]; IL-2 single, 10 μg): 20% | % CURES ([5]; IL-2 single, 30 μg): 10% | % RELAPSE ([5]; IL-2 single, 30 μg): 0% | % RESPONSE ([5]; IL-2 single, 30 μg): 10% | most efficacious dosing [5]: most efficacious if doses are administered over 3 consecutive milkings | dose response of therapeutic efficacy [5]: dose response therapeutic efficacy | therapeutic efficacy in infected mammary glands [5]: effectively treated
